Data reported in article PMC4223295, “Crystal Structure of the Bacillus subtilis Phosphodiesterase PhoD Reveals an Iron and Calcium-containing Active Site” (The Journal of Biological Chemistry, 2014).

T1: PhoD (mPhoD) (Bacillus subtilis, UniProt P42251)
T1 sequence (P42251 57-583): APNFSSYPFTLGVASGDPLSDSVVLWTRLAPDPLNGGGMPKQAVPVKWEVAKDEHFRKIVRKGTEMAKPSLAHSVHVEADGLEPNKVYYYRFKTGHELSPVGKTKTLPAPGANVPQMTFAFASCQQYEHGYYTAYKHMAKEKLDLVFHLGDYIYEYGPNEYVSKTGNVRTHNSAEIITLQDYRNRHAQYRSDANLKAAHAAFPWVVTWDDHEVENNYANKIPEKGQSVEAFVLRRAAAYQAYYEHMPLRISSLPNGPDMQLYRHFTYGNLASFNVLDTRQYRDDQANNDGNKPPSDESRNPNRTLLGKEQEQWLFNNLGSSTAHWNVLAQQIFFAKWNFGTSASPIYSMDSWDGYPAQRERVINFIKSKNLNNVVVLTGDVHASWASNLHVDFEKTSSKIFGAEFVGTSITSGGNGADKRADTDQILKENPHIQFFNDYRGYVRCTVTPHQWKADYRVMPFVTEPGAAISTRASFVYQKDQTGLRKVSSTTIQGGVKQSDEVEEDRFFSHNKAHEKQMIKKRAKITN

B1: PhoD (mPhoD) (Bacillus subtilis subsp. subtilis str. 168) (protein)
chain: T1 sequence (P42251 57-583)
notes: mature domain, signal peptide removed; N-terminal Strep-SUMO tag cleaved by Ulp1; E. coli BL21(DE3) cytoplasm

Columns and labels:
[1] = target: T1, PhoD (mPhoD); conditions: crystallised at pH 5.6 with phosphate; active site, coordinates Fe3+ and two Ca2+ ions; proposed product complex
[2] = substrate: O=[N+]([O-])c1ccc(OP(=O)(O)O)cc1; test: purified protein; format: biochemical, Bacillus subtilis; conditions: pH 8.0, 25 °C, 100 mM Tris-HCl, 2 mM CaCl2, Ca2+-supplemented enzyme

Molecule | X-ray crystal structure, 2 Å [1] | Km [2] [µM] | kcat [2] [s⁻¹]
O=P(O)(O)O [phosphate] | the structure contains a phosphate molecule bound at the active site | – | –
B1 | – | 50 | 1.2
